Patent US20120094899A1 (Takeda / Millennium, published 2012)
Non-standard residues stand in square brackets, D forms with d. No end group written: not given here. *: point of attachment. Acetyl(2-(piperazin-1-yl)) = O=C(CN1CCNCC1)*; PEG 20 kDa = methoxypolyethylene glycol 20k; PEG 30 kDa = methoxypolyethylene glycol 30k; NMeY = CN[C@@H](Cc1ccc(O)cc1)C(=O)O; NMeR = CN[C@@H](CCCNC(=N)N)C(=O)O; NMeL = CN[C@@H](CC(C)C)C(=O)O; NMeA = CN[C@@H](C)C(=O)O; βAla = NCCC(=O)O

T1: Human FM3 (human, UniProt Q9HB89 1-426)
T1 construct: whole, on cells; Assayed as the membrane fraction of FM3-expressing CHO cells (1.2 mg/mL protein); also called NMUR1; FM3 receptor
T1 sequence (looked up): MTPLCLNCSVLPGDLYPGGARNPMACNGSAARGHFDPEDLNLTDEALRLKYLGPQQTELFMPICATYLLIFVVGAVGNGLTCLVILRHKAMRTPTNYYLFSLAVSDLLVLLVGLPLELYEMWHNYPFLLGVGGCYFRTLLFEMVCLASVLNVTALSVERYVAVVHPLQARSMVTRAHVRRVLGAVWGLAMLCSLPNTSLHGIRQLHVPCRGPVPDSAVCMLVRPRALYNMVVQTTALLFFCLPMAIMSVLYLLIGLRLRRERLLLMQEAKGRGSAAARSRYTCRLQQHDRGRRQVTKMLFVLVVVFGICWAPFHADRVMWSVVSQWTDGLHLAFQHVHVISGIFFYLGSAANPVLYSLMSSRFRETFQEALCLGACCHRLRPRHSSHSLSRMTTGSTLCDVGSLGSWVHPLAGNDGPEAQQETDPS

B1: β-Ala0,Trp2,NMeAla6-NMU-8 (Compound 17) (peptide)
peptide: [βAla]YWLFR[NMeA]RN-NH2
modifications: N-terminus assumed
SMILES: CC(C)C[C@H](NC(=O)[C@H](Cc1c[nH]c2ccccc12)NC(=O)[C@H](Cc1ccc(O)cc1)NC(=O)CCN)C(=O)N[C@@H](Cc1ccccc1)C(=O)N[C@@H](CCCNC(=N)N)C(=O)N(C)[C@@H](C)C(=O)N[C@@H](CCCNC(=N)N)C(=O)N[C@@H](CC(N)=O)C(N)=O
B2: NpipAc0,Glu2,Ala6-NMU-8 (Compound 19) (peptide)
peptide: {Acetyl(2-(piperazin-1-yl))}-YELFRARN-NH2
SMILES: CC(C)C[C@H](NC(=O)[C@H](CCC(=O)O)NC(=O)[C@H](Cc1ccc(O)cc1)NC(=O)CN1CCNCC1)C(=O)N[C@@H](Cc1ccccc1)C(=O)N[C@@H](CCCNC(=N)N)C(=O)N[C@@H](C)C(=O)N[C@@H](CCCNC(=N)N)C(=O)N[C@@H](CC(N)=O)C(N)=O
notes: also called 2-(piperazin-1-yl)acetyl-[Glu2,Ala6]-NMU8
B3: NpipAc0,Glu2,NMeAla6-NMU-8 (Compound 21) (peptide)
peptide: {Acetyl(2-(piperazin-1-yl))}-YELFR[NMeA]RN-NH2
SMILES: CC(C)C[C@H](NC(=O)[C@H](CCC(=O)O)NC(=O)[C@H](Cc1ccc(O)cc1)NC(=O)CN1CCNCC1)C(=O)N[C@@H](Cc1ccccc1)C(=O)N[C@@H](CCCNC(=N)N)C(=O)N(C)[C@@H](C)C(=O)N[C@@H](CCCNC(=N)N)C(=O)N[C@@H](CC(N)=O)C(N)=O
notes: also called 2-(piperazin-1-yl)acetyl-[Glu2,NMeAla6]-NMU8
B4: β-Ala0,Glu2,NMeAla6-NMU-8 (Compound 18) (peptide)
peptide: [βAla]YELFR[NMeA]RN-NH2
modifications: N-terminus assumed
SMILES: CC(C)C[C@H](NC(=O)[C@H](CCC(=O)O)NC(=O)[C@H](Cc1ccc(O)cc1)NC(=O)CCN)C(=O)N[C@@H](Cc1ccccc1)C(=O)N[C@@H](CCCNC(=N)N)C(=O)N(C)[C@@H](C)C(=O)N[C@@H](CCCNC(=N)N)C(=O)N[C@@H](CC(N)=O)C(N)=O
B5: 2-(piperazin-1-yl)acetyl-Arg3-NMU8 (Compound 10) (peptide)
peptide: {Acetyl(2-(piperazin-1-yl))}-YFRFRPRN-NH2
SMILES: N=C(N)NCCC[C@H](NC(=O)[C@H](Cc1ccccc1)NC(=O)[C@H](Cc1ccc(O)cc1)NC(=O)CN1CCNCC1)C(=O)N[C@@H](Cc1ccccc1)C(=O)N[C@@H](CCCNC(=N)N)C(=O)N1CCC[C@H]1C(=O)N[C@@H](CCCNC(=N)N)C(=O)N[C@@H](CC(N)=O)C(N)=O
notes: also called NpipAc-Arg3-NMU-8
B6: Arg3-NMU-8 (Compound 9) (peptide)
peptide: YFRFRPRN-NH2
notes: no linker
B7: PEG20k-NpipAc-Arg3-NMU-8 (Compound I) (peptide)
peptide: {PEG 20 kDa-Acetyl(2-(piperazin-1-yl))}-YFRFRPRN-NH2
B8: PEG30k-NH-β-Ala0,Arg1-NMU-8 (Compound G) (peptide)
peptide: {PEG 30 kDa-βAla}-RFLFRPRN-NH2
notes: also called PEG-NH-β-Ala0,Arg1-NMU-8
B9: PEG30k-NH-β-Ala0,Arg3-NMU-8 (Compound C) (peptide)
peptide: {PEG 30 kDa-βAla}-YFRFRPRN-NH2
notes: also called PEG-NH-β-Ala0,Arg3-NMU-8
B10: PEG30k-NH-β-Ala0,Asp8-NMU-8 (Compound L) (peptide)
peptide: {PEG 30 kDa-βAla}-YFLFRPRD-NH2
B11: PEG30k-NH-β-Ala0,Gln3-NMU-8 (Compound B) (peptide)
peptide: {PEG 30 kDa-βAla}-YFQFRPRN-NH2
notes: also called PEG-NH-β-Ala0,Gln3-NMU-8
B12: PEG30k-NH-β-Ala0,Gln5-NMU-8 (Compound A) (peptide)
peptide: {PEG 30 kDa-βAla}-YFLFQPRN-NH2
notes: also called PEG-NH-β-Ala0,Gln5-NMU-8
B13: PEG30k-NH-β-Ala0,Pro1-NMU-8 (Compound H) (peptide)
peptide: {PEG 30 kDa-βAla}-PFLFRPRN-NH2
notes: also called PEG-NH-β-Ala0,Pro1-NMU-8
B14: PEG30k-NH-β-Ala0,Tyr2-NMU-8 (Compound E) (peptide)
peptide: {PEG 30 kDa-βAla}-YYLFRPRN-NH2
notes: also called PEG-NH-β-Ala0,Tyr2-NMU-8
B15: PEG30k-NH-β-Ala0,Val3-NMU-8 (Compound D) (peptide)
peptide: {PEG 30 kDa-βAla}-YFVFRPRN-NH2
notes: also called PEG-NH-β-Ala0,Val3-NMU-8
B16: PEG30k-NpipAc-Arg3-NMU-8 (Compound J) (peptide)
peptide: {PEG 30 kDa-Acetyl(2-(piperazin-1-yl))}-YFRFRPRN-NH2
B17: β-Ala0,Arg1-NMU-8 (Compound 7) (peptide)
peptide: [βAla]RFLFRPRN-NH2
modifications: N-terminus assumed
SMILES: CC(C)C[C@H](NC(=O)[C@H](Cc1ccccc1)NC(=O)[C@H](CCCNC(=N)N)NC(=O)CCN)C(=O)N[C@@H](Cc1ccccc1)C(=O)N[C@@H](CCCNC(=N)N)C(=O)N1CCC[C@H]1C(=O)N[C@@H](CCCNC(=N)N)C(=O)N[C@@H](CC(N)=O)C(N)=O
B18: β-Ala0,Arg3-NMU-8 (Compound 3) (peptide)
peptide: [βAla]YFRFRPRN-NH2
modifications: N-terminus assumed
SMILES: N=C(N)NCCC[C@H](NC(=O)[C@H](Cc1ccccc1)NC(=O)[C@H](Cc1ccc(O)cc1)NC(=O)CCN)C(=O)N[C@@H](Cc1ccccc1)C(=O)N[C@@H](CCCNC(=N)N)C(=O)N1CCC[C@H]1C(=O)N[C@@H](CCCNC(=N)N)C(=O)N[C@@H](CC(N)=O)C(N)=O
B19: β-Ala0,Asp8-NMU-8 (Compound 12) (peptide)
peptide: [βAla]YFLFRPRD-NH2
modifications: N-terminus assumed
SMILES: CC(C)C[C@H](NC(=O)[C@H](Cc1ccccc1)NC(=O)[C@H](Cc1ccc(O)cc1)NC(=O)CCN)C(=O)N[C@@H](Cc1ccccc1)C(=O)N[C@@H](CCCNC(=N)N)C(=O)N1CCC[C@H]1C(=O)N[C@@H](CCCNC(=N)N)C(=O)N[C@@H](CC(=O)O)C(N)=O
B20: β-Ala0,Gln3-NMU-8 (Compound 2) (peptide)
peptide: [βAla]YFQFRPRN-NH2
modifications: N-terminus assumed
SMILES: N=C(N)NCCC[C@H](NC(=O)[C@@H]1CCCN1C(=O)[C@H](CCCNC(=N)N)NC(=O)[C@H](Cc1ccccc1)NC(=O)[C@H](CCC(N)=O)NC(=O)[C@H](Cc1ccccc1)NC(=O)[C@H](Cc1ccc(O)cc1)NC(=O)CCN)C(=O)N[C@@H](CC(N)=O)C(N)=O
B21: β-Ala0,Gln5-NMU-8 (Compound 1) (peptide)
peptide: [βAla]YFLFQPRN-NH2
modifications: N-terminus assumed
SMILES: CC(C)C[C@H](NC(=O)[C@H](Cc1ccccc1)NC(=O)[C@H](Cc1ccc(O)cc1)NC(=O)CCN)C(=O)N[C@@H](Cc1ccccc1)C(=O)N[C@@H](CCC(N)=O)C(=O)N1CCC[C@H]1C(=O)N[C@@H](CCCNC(=N)N)C(=O)N[C@@H](CC(N)=O)C(N)=O
B22: β-Ala0,NMeArg5-NMU-8 (Compound 13) (peptide)
peptide: [βAla]YFLF[NMeR]PRN-NH2
modifications: N-terminus assumed
SMILES: CC(C)C[C@H](NC(=O)[C@H](Cc1ccccc1)NC(=O)[C@H](Cc1ccc(O)cc1)NC(=O)CCN)C(=O)N[C@@H](Cc1ccccc1)C(=O)N(C)[C@@H](CCCNC(=N)N)C(=O)N1CCC[C@H]1C(=O)N[C@@H](CCCNC(=N)N)C(=O)N[C@@H](CC(N)=O)C(N)=O
B23: PEG20k-NH-β-Ala0,Glu2,NMeAla6-NMU-8 (Compound R) (peptide)
peptide: {PEG 20 kDa-βAla}-YELFR[NMeA]RN-NH2
B24: PEG20k-NpipAc0,Glu2,Ala6-NMU-8 (Compound S) (peptide)
peptide: {PEG 20 kDa-Acetyl(2-(piperazin-1-yl))}-YELFRARN-NH2
notes: also called PEG20k-NpipAc-Glu2,Ala6-NMU8
B25: PEG20k-NpipAc0,Glu2,NMeAla6-NMU-8 (Compound U) (peptide)
peptide: {PEG 20 kDa-Acetyl(2-(piperazin-1-yl))}-YELFR[NMeA]RN-NH2
notes: also called PEG20k-NpipAc-Glu2,NMeAla6-NMU8
B26: β-Ala0,NMeTyr1,NMeLeu3,NMeArg5-NMU-8 (Compound 16) (peptide)
peptide: [βAla][NMeY]F[NMeL]F[NMeR]PRN-NH2
modifications: N-terminus assumed
SMILES: CC(C)C[C@@H](C(=O)N[C@@H](Cc1ccccc1)C(=O)N(C)[C@@H](CCCNC(=N)N)C(=O)N1CCC[C@H]1C(=O)N[C@@H](CCCNC(=N)N)C(=O)N[C@@H](CC(N)=O)C(N)=O)N(C)C(=O)[C@H](Cc1ccccc1)NC(=O)[C@H](Cc1ccc(O)cc1)N(C)C(=O)CCN
notes: also called β-Ala0,NMeTry1,NMeLeu3,NMEArg5-NMU-8
B27: PEG20k-NpipAc0,Trp2,Ala6-NMU-8 (Compound T) (peptide)
peptide: {PEG 20 kDa-Acetyl(2-(piperazin-1-yl))}-YWLFRARN-NH2
notes: also called PEG20k-NpipAc-Trp2,Ala6-NMU8

Target: T1, Human FM3
Assay: displacement of 125I-NMU8 from human FM3 CHO membrane fraction; IC50 relative to NMU-8;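 also: binding reaction run for 70 min at 25 °C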
Procedure: (§1) 15 mL of homogenized buffer (10 mM NaHCO₃ (pH 7.4), 5 mM EDTA, protease inhibitor=0.5 mM PMSF, 10 μg/mL Pepstatin A, 20 μg/mL Leupeptin, and 4 μg/mL E-64) was added to the obtained cell pellets, the cellular membrane was disrupted using a polytron homogenizer (Kinematica GmbH), centrifugation was conducted for 10 minutes at 1,000 g at 4° C., and the supernatant was collected. This process was further repeated twice, and ultracentrifugation was conducted for 60 minutes at 30,000 rpm at 4° C. Thereafter, 8 mL of homogenized buffer was added to the pellets and suspended homogeneously to prepare a membrane fraction. The protein concentration of the FM3-expressing CHO cellular membrane fraction was 1.2 mg/mL, and the protein concentration of the TGR1-expressing CHO cellular membrane fraction was 1.1 mg/mL.
(§2) Specifically, each of the NMU derivatives and PEG conjugates was dissolved in DMSO so as to prepare 2 μL of each dilution series of the NMU derivatives and PEG conjugates. […] The resulting product was thoroughly mixed, and then a reaction was carried out at 25° C. for 70 minutes.

Binder	IC50 ratio
B1	92 ratio to NMU-8 (=1)
B2	24000 ratio to NMU-8 (=1)
B3	6500 ratio to NMU-8 (=1)
B4	26000 ratio to NMU-8 (=1)
B5	0.27 ratio to NMU-8 (=1)
B6	0.62 ratio to NMU-8 (=1)
B7	1.6 ratio to NMU-8 (=1)
B8	1.5 ratio to NMU-8 (=1)
B9	1.7 ratio to NMU-8 (=1)
B10	150 ratio to NMU-8 (=1)
B11	1.8 ratio to NMU-8 (=1)
B12	160 ratio to NMU-8 (=1)
B13	9.4 ratio to NMU-8 (=1)
B14	8.1 ratio to NMU-8 (=1)
B15	5.3 ratio to NMU-8 (=1)
B16	2.2 ratio to NMU-8 (=1)
B17	0.42 ratio to NMU-8 (=1)
B18	0.07 ratio to NMU-8 (=1)
B19	2.4 ratio to NMU-8 (=1)
B20	0.31 ratio to NMU-8 (=1)
B21	15 ratio to NMU-8 (=1)
B22	0.46 ratio to NMU-8 (=1)

Target: T2, human TGR1 (human, UniProt Q9GZQ4 1-415)
T2 construct: whole, on cells; Assayed as the membrane fraction of TGR1-expressing CHO cells (1.1 mg/mL protein); also called NMUR2; TGR1 receptor
T2 sequence (Q9GZQ4 whole entry): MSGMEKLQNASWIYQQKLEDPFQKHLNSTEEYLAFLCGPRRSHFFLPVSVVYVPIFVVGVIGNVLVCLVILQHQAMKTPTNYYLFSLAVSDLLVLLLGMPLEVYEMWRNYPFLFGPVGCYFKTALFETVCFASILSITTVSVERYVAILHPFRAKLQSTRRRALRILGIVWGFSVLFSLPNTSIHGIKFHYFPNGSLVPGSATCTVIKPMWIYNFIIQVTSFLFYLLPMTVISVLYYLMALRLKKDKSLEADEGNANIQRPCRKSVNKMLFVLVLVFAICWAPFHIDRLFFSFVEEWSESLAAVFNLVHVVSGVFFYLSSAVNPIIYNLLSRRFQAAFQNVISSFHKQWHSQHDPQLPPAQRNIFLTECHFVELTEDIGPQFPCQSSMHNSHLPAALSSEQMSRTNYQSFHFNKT
Assay: displacement of 125I-NMU8 from human TGR1 CHO membrane fraction; IC50 relative to NMU-8;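 also: competitive binding on TGR1-expressing CHO cell membranes, with compounds tested as DMSO dilution series and incubated for 70 min at 25 °C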
Procedure: as §1, §2

Binder	IC50 ratio
B1	1.9 ratio to NMU-8 (=1)
B2	25 ratio to NMU-8 (=1)
B3	5.5 ratio to NMU-8 (=1)
B23	540 ratio to NMU-8 (=1)
B24	750 ratio to NMU-8 (=1)
B25	360 ratio to NMU-8 (=1)
B4	31 ratio to NMU-8 (=1)
B5	0.66 ratio to NMU-8 (=1)
B6	1.9 ratio to NMU-8 (=1)
B7	2.1 ratio to NMU-8 (=1)
B8	8.5 ratio to NMU-8 (=1)
B9	2.6 ratio to NMU-8 (=1)
B10	34 ratio to NMU-8 (=1)
B11	7.3 ratio to NMU-8 (=1)
B12	9.6 ratio to NMU-8 (=1)
B13	21 ratio to NMU-8 (=1)
B14	1.7 ratio to NMU-8 (=1)
B15	2.2 ratio to NMU-8 (=1)
B16	2.6 ratio to NMU-8 (=1)
B17	3.7 ratio to NMU-8 (=1)
B18	0.38 ratio to NMU-8 (=1)
B19	2 ratio to NMU-8 (=1)
B20	3.9 ratio to NMU-8 (=1)
B21	3.4 ratio to NMU-8 (=1)
B26	27 ratio to NMU-8 (=1)
B27	55 ratio to NMU-8 (=1)
